For experiment [1], the target named is GST-fused AjTmod (complete AjTmod sequence) (Apostichopus japonicus). Put plainly: MST; Monolith NT.115; NT-647-NHS labelled protein (about 5 uM) with 16 serial concentrations of unlabelled His-fused actin; 50 mM Tris-HCl pH 8.0, 0.02% Tween 20; 25 °C.
Experiment [2] addresses GST-fused AjTmod after the addition of His-fused STPKLRR (phosphorylated AjTmod) (Apostichopus japonicus). The experiment in a line: MST; as a4, but His-fused STPKLRR (5 uM) added to GSTTmod/His-fused actin and incubated for 10 min.

The results in this text go back to PMC10237653.

For the substance His-fused actin (natural protein), the Kd (usually the free concentration of one partner at which half of the binding sites on the other are occupied at equilibrium, for simple one-to-one binding) in experiment [1] was 1.46 nM; in experiment [2], 7.16 nM.
